Assay results reported in patent US20140155582A1 (Astellas, published 2014).

Experiments:
[1] = molecular target: human βNGF (R&D Systems, Inc.) (human, UniProt P01138 122-241); experiment: cell-based or functional assay
[2] = molecular target: mouse βNGF (R&D Systems, Inc.) (mouse, UniProt P01139 122-241); experiment: cell-based or functional assay
mouse βNGF (R&D Systems, Inc.), sequence (P01139 122-241 limits assumed): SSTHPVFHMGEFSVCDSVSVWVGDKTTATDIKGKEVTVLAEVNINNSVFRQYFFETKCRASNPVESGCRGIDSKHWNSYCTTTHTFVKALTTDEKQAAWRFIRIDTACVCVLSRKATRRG

human βNGF (R&D Systems, Inc.), sequence (P01138 122-241 limits assumed): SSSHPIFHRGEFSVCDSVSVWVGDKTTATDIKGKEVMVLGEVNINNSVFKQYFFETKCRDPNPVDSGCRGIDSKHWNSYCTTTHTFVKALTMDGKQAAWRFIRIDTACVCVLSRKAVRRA

Row | Binder | IC50, method of Example 6 at a final NGF concentration of 50 ng/ml [1] [µg/mL] | IC50, method of Example 6 (Ca2+, HEK293-human trkA) [2] [µg/mL] | IC50, method of Example 6 (Ca2+, HEK293-human trkA) [1] [µg/mL]
1 | 1-15(N52D-A)-Fab′ conjugated to 5 kDa PEG (Fab, V domains shown, 5 kDa PEG conjugated by a procedure similar to Example 13 (hinge region Cys)) VH: QVQLQQWGAGLLKPSETLSLTCAVYGGSFSGYYWSWVRQPPGKGLEWIGEIDHSGSTNNNPSLKSRVTISVGTSKNQFSLKLSSVTAADTAVYYCSRDGGPESGMGAFDIWGQGTMVTVSS VL: not shown | 0.03 | – | –
2 | 1-15(N52D-A)-Fab′ conjugated to 10 kDa PEG (Fab, V domains shown, 10 kDa PEG conjugated by a procedure similar to Example 13 (hinge region Cys)) VH: QVQLQQWGAGLLKPSETLSLTCAVYGGSFSGYYWSWVRQPPGKGLEWIGEIDHSGSTNNNPSLKSRVTISVGTSKNQFSLKLSSVTAADTAVYYCSRDGGPESGMGAFDIWGQGTMVTVSS VL: not shown | 0.028 | – | –
3 | PEGylated 1-15(N52D)-Fab′ (Fab, V domains shown, 40 kDa PEG (maleimide, SUNBRIGHT GL2-400MA) on Cys at position 230 of SEQ ID NO:10 (C226 based on EU index)) VH: QVQLQQWGAGLLKPSETLSLTCAVYGGSFSGYYWSWVRQPPGKGLEWIGEIDHSGSTNNNPSLKSRVTISVGTSKNQFSLKLSSVTAADTAVYYCSRDGGPESGMGAFDIWGQGTMVTVSS VL: not shown | – | 0.069 | –
4 | tanezumab (antibody, V domains shown) VH: QVQLQESGPGLVKPSETLSLTCTVSGFSLIGYDLNWIRQPPGKGLEWIGIIWGDGTTDYNSAVKSRVTISKDTSKNQFSLKLSSVTAADTAVYYCARGGYWYATSYYFDYWGQGTLVTVSS VL: DIQMTQSPSSLSASVGDRVTITCRASQSISNNLNWYQQKPGKAPKLLIYYTSRFHSGVPSRFSGSGSGTDFTFTISSLQPEDIATYYCQQEHTLPYTFGQGTKLEIKR | – | 0.23 | 0.17
